Laboratory results as given in patent US20230265185A1 (NATIONAL RESEARCH COUNCIL OF CANADA, published 2023).

Tests used:
[1] = molecular target: T1, hCD22 fragment Bin 4, IVR4 (aa303-405), displayed on yeast cells (human, UniProt P20273 322-424); experiment: yeast display cell ELISA, heat denatured cells (80 C, 30 min)
T1 construct: Range is counted on the mature ECD, not on the UniProt entry; on P20273 it would be 322-424 (my arithmetic); also called CD22 Sub-Domain 4; not shown: Aga2-HA display fusion partner of vector pPNL6; MYC tag
T1 sequence (looked up): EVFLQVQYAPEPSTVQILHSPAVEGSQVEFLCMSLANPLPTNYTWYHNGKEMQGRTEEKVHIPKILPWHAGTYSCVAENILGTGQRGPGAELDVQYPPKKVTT
Method: (§1) The YSD vector (pPNL6) was from The Pacific Northwest National Laboratory, USA. […] The HRP activity was assayed with substrate TMB (tetramethyl benzidine) according to the manufacture’s conditions and read at OD₄₅₀.
(§2) Table 7 depicts the assessment of the nature of the epitopes of CD22 sdAbs to determine if the epitopes for the sdAbs are continuous (linear) or non-continuous (conformational). […] The binding of each sdAb to native and denatured CD22 fragments was measured as OD₄₅₀, and the ratio of the binding to denatured CD22 to non-denatured CD22 was calculated, with the ratio ≥ 0.5 indicative linear (L), and the ratio < 0.5 indicative of conformational (C) epitopes.

[2] = molecular target: T2, full-length hCD22-ECD (668aa) displayed on yeast cells (human, UniProt P20273 20-687); experiment: as above
T2 construct: extracellular domain; Yeast surface display fusion Aga2-HA-(insert)-MYC; also called Bin 8; CD22-ECD Full lenght; not shown: Aga2-HA display fusion partner of vector pPNL6; MYC tag
T2 sequence (looked up): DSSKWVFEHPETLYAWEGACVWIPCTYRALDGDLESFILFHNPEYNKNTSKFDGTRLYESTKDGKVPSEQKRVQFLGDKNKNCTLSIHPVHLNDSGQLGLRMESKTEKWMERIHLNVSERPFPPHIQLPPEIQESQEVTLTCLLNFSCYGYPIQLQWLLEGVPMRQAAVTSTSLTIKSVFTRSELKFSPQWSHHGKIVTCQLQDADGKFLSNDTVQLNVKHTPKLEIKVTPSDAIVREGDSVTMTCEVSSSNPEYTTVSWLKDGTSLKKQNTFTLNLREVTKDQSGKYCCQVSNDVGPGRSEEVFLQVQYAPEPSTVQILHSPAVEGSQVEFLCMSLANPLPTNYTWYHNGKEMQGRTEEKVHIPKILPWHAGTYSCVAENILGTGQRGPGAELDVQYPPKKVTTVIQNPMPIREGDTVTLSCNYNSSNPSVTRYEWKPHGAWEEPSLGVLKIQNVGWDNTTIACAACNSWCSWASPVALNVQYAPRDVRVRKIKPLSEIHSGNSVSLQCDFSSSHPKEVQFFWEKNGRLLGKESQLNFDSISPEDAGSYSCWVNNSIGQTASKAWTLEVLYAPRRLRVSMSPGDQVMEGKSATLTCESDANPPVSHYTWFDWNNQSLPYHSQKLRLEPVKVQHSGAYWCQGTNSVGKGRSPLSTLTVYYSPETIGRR
Method: as §1, §2

[3] = molecular target: T3, hCD22 fragment Bin 1, IVR1 (aa1-135), displayed on yeast cells (human, UniProt P20273 20-154); experiment: as above
T3 construct: range 1-135; Range is counted on the mature ECD, not on the UniProt entry; on P20273 it would be 20-154 (my arithmetic); also called CD22 Sub-Domain 1; not shown: Aga2-HA display fusion partner of vector pPNL6; MYC tag
T3 sequence (looked up): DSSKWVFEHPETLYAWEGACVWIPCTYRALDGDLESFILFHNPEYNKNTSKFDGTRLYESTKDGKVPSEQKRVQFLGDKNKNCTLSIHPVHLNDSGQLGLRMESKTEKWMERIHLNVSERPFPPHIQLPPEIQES
Method: as §1, §2

[4] = molecular target: T3, hCD22 fragment Bin 1, IVR1 (aa1-135), …; experiment: yeast display cell ELISA, OD on denatured over non-denatured CD22 fragment
Method: as §1, §2

B1: hCD221ug-13 (VHH)
VHH: QVQLVESGGGLVQAGDSLRLSCAGSGGSFSSVTMAWFRQAPGKDREFVAAITWSSPSTYYADSVKGRFTISRDNAKNTVYLQMNSLKPEDTAVYYCAGGRTGRGTSADTDEYNYWGQGTQVTVSS
modifications: single biotin at the VHH C-terminal (biotinylation signal sequence)
notes: llama VHH, expressed in E. coli TG1, IMAC purified, monomeric SEC fraction; also called VHH # 21; 1-hCD22 1ug-13
[1]
  Heat Inactivated CD22 OD: 0.686 OD450

B2: hCD22pas-32 (VHH)
VHH: QVQLVESGGGLVQAGGSLRLSCAVSGRIFRSYVLGWFRQAPGKERELVARIGWSDTYYADSVKGRFTISRDNAKNTVDLQMNSLKPEDTAVYYCAANSPPYGPQRDEFGYWGQGTQVTVSS
modifications: single biotin at the VHH C-terminal (biotinylation signal sequence)
notes: llama VHH, expressed in E. coli TG1, IMAC purified, monomeric SEC fraction; also called VHH # 15; 6-hCD22 pas-32
[2]
  Heat Inactivated CD22 OD: 0 OD450

B3: hCD221ug-80 (VHH)
VHH: QVQLVESGGGLVQPGGSLRLSCTFSGFTLDYYVMVWFRQAPGKEREAVSCITSDGVTYYADSVKGRFTISRDNAKNTVYLQMNRVKPEDTAVYYCAVDKPFYDGGIQYTCPVDFDSWGQGAQVTVSS
modifications: single biotin at the VHH C-terminal (biotinylation signal sequence)
notes: llama VHH, expressed in E. coli TG1, IMAC purified, monomeric SEC fraction; also called VHH # 1; 2-hCD22 1ug-80
[3]
  Heat Inactivated CD22 OD: 1.77 OD450
[4]
  CD22 Ratio (D/ND): 0.762
